Reference: the domain aggregation screens of Martell et al. (2025)

Assay: soluble fraction after stress (log2 fold change); higher = more stays soluble; pooled small domains, quantitative proteomics
Settings: stress: pH 4
Procedure, shortened: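 Custom libraries of small protein domains were pooled and measured with high-throughput quantitative proteomics after pH 4 stress. The read-out is the fold change in the amount of each domain that stays soluble after the acid stress, taken as a measure of aggregation propensity. Fold changes are on a log2 scale, and higher values mean more of the domain stayed soluble.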

Row | Sequence | soluble fraction (log2)
1 | HMLETLVYPNPTTDKILLSSPVDYHLFSLKGELVLEGRGSSIEVSQLSKGVYFLNTKTQTFKIIK | -0.156
2 | HMLGARSLNEAVARNLPQILAKYQLIHIAGKNGFNPELQGRGYVQYEYVDTELKDLMALADIVVSR | -0.0512
3 | HMLGERIKQIRKQKKMTQTDVATGIITKSMLSMIENGKATPSLPALQAIARRLQVTVEELML | 0.0227
4 | HMLGFELVGIRGNNPESTIIILERDDYRLVEQGQNINSSVIFSHIDGSRAYFFDGQTYTFLDI | -2.77
5 | HMLGITEGSLVRVIRSPNFGKIGTVAELPAELRMMESETMVRIAIVEIEGTNFEIPRSNLEVLET | -1.28
6 | HMLGKEVVRAYNISYAIDDKGSLQGDLTAALTGLIPLSKPPVLDQRNRSLYVTATPEQHKDVAALLAKL | -0.364
7 | HMLGSGSKEQQLVILNNILERQVQAFNLQGGQEYPMVTLKNFYNTLSKMIENAGLKNVENYFVNPDVGKQM | -0.0872
8 | HMLHMKAALGELMSIPGMRSELAGTLFDRGYTSLAQLRAATLDDLERVNGLERADARRIHDFLRKS | -0.066
9 | HMLHQSLVVNAASGRVTVSLDIVPDEDNPYAVLRATDDSDEPLAQVRVAPSFKLNRASALAWIESQFARP | -0.128
10 | HMLHSEDATVVRQAIPLLERHVDAATVAVARRNLAQLEQFGRYPRRNQALGRISNPAENAYLRAER | -0.0503
11 | HMLIDQYPYSIIYRLIPHGRSNAVPAAQIVGLTKLDERSIRIYVEAMRREGHIIASSSKGYYFPASIEE | -0.589
12 | HMLIGLNETESLVLDALIANPMRIDQVSAMLKKDVATTLKFLGGLSVRGLVETLFGGRFAPTKIALHARS | -0.247
13 | HMLIIMNSDATKEQVDHVTSRVREAGFKDHIMPGAGKVAIGVTGTGDYDQTKLHLEILPGVFKIMRITK | -0.0509
14 | HMLIPADETEAKVLSVLSREPLHVDEIRNQAGLPIEKISATLALMELKGMVRQVGGMNYVSV | -0.48
15 | HMLKDKLSDKDFDFYKNKIQIQLQGNPTELKELVRRFSSTEEQQILKTIDYMLDNGFLRIDEDNMIYWK | -1.8
16 | HMLKDQSIAQLEKNLDDLKGLMRKMFGSSDVPKITKMISDIESSLANFNQSKANKLIVQTTNYISSKL | -0.0978
17 | HMLKEDSAYELGLRIFDQALNDYGTSFIDLKEDEYKKVLSIYGYSNPRQLIINIGLGNVIPHLLARDITE | -1.17
18 | HMLKEGIKEKINQLQVYADKNDNIIWYDRVVDILSDKDDSVTDEMIEAAIRTLEEAGISVERKQ | -1.04
19 | HMLKEGQYSPNHFHWHKMEDIINRGGGTLLIRVYNSLPDEEIDRESDVTVHMDGVTRTVPAGTQLRLE | -0.345
20 | HMLKETGVITASVLNVREDIGTSSNIVAQLKKGMEVNILESRAIAGSETWYRIDAGSIKGWIFGDYI | -2.29
21 | HMLKFGLSQRELQILALLPTDEPLSILAKSLFISESTLKTHLTHIYRKLGVKNRLQAINVARKAGLLK | -0.502
22 | HMLKHSKQRDAIEQFLATRYDHPTAETVYMNLREEYPKLSLATVYRNLSLLAELGNIQKIPTGNGPDRFDG | 0.22
23 | HMLKIAENIYQRRKEKNITQEELADFMMVTKASVSKWETGQSYPDILLLPKLATFFNVTVDELIGYEPQ | -1.07
24 | HMLKIVRSREEVESRLYTIYGNVKGRRLYNFYLSLIIDGLDIVKARTSKNVYYTNIRNLKNAGIDFSQKIN | -0.0641
25 | HMLKPKDLHLGDSVRVLSLNLKGTVSSLPDTKGFLFVQMGIMRSKLHISDLQLIDEPVITAP | -0.314
26 | HMLLFSVADIVKRSKRILSFKTDAELAAYFGVSRSTLSNWIARNSIDFPLLLSKMKDVDYTWLILGKGTPG | -0.207

Row | Sequence | soluble fraction (log2)
27 | HMLLLHINQMGVTEFSQLELNHVRSWLANLQIKGAARSSITRRVVSVRAFTYWGAKNGWLASDIGRDLVAP | -0.275
28 | HMLLRVGGLVKDGSVRTDNDLGIKFIIEDNLAEVSVLYNGILPDLFREGQGVIAEGKFIDNIFIANEIVA | -1.13
29 | HMLLSHTAQREGELLTFLRGELALSSGLVKRLKWQNAFFLDGAPVHTNARVKPGQEITVRIEE | -1.09
30 | HMLLTEETLPQLKQIVDEFPYFQIARMLYLKNLAVLNDIRFSVELKKMSIYVPDRRKLFTLIEGE | -0.69
31 | HMLLTLPEDIITMVRQGTLSAGHARVLAGLESDEMKMTLARQTITNEWSVRQLENAVALMRKS | -0.858
32 | HMLLTPLEETRLVIEEIVIPQKLTIDLLPRSSAIRKLQHELITHYQLRGTSVGNEPNRRLRIYP | -0.633
33 | HMLMNADVLVKYQEDHWIVISEKASQASDTFDKKEQAVERAKEIAKNKNSSVKVYKQDGTLQDTFDYS | 0.306
34 | HMLMSDEENAEFTKLYRQLVFKLHPDLNPNQTKDEENLWHKVQMAYKGGDLEEMRSLAIILDAQ | -0.547
35 | HMLMTGSLQTKHGKYYVVVRIPDGLGNTKAKWINTGIPTDGNNKRKAQQRRIEILTELEENKD | 0.168
36 | HMLMYAQDEKEEASNNIPYRLLHMSFTKEQKAELQRAMDVRVPKDIILSYFYPDTPVARMMEIRRQYESA | 0.12
37 | HMLNDKLQTLFSLFPAVDKDLKKKGVTRQILWEQYKRNHPDGVGRSQFNYYYAQWKDQVNPT | 0.22
38 | HMLNDMYAVMEIRGQGGELIAKLINQDGSPFYVKKGTTLQSGHVIDEITTTYVRAEKAGAKDYLYF | -1.65
39 | HMLNDTGAIRAAVEEVLAANEKSVNEYKGGKTQAFQYLIGQSMRALRGKAPAQEVTKLLKELLG | -0.0483
40 | HMLNQIGVSQKEFDQIHTAIKIALKTSSLTPTGITEKLPKFPPEKTADILRWMADNKEVLLNSEEKYELKT | 0.0247
41 | HMLPAGAAAPLEDGSAPEGYTVKGNADSGLYHEPDGRWYDATVAEFWFKTAADAEAAGFRKAGS | -0.741
42 | HMLPDGEAFVKVNTSLNIRTGPWGQIVGWFHNNDKVKIIGRDGDWYKISHNGQTRYIHSRYVSSSR | -0.0297
43 | HMLPDHAPITMRQLAMLHVAKNKLDLTDEDYRSLLLLYGGVESSKQLNQEGLRRVLDRFKELGFEP | -0.258
44 | HMLPDLLNGRVIPSPEKVIRARLNRGVWELLVQWVGRAPSDATWENLLEFKSAYPSVQLEDALF | -1.1
45 | HMLPDLQKAIDTFLYEVDSRINTSFEELIDKLNSKEEAVAFFLALLEAVRWGFIKAEQESNSINIKK | -1.49
46 | HMLPDSQLMKEATAWFMRQAADDFSGAERRRLDAWRAQSPAHARAYHQVQALWNAPELQQAAAR | -0.0106
47 | HMLPEGIENGDVLTRTDALDYRKWLVTGNQKRIFASTASFYGENFNYSEVKAVSDRVLDAIPDGEPV | -0.549
48 | HMLPFGHTRLEDGTIQEIPEQIALARKVAEMYKAGFPVMQISIKTEGLLTPRQIYGLMNHWGVKR | -0.412
49 | HMLPIKLDLEIGENVRVVSGPLENFVGSVVSFDTDQQKVKLVVEMFGRKTPVELDFIEVQKLR | -1.47
50 | HMLPIMDRLITAGISINTAKKWVDKFGDKRIKQNLAYSLAKQKEGKVKTNFVGYLAKAIEEDWGSGWE | ≥ 0.43
51 | HMLPKAERREQLMAVARSVFAEQGYHTTSMEIIAETAGVSKPLLYQHFPSKLDLYLALLDAGID | -1.1
